Data as given in article PMC8934283 (Nature, 2022).

Experiments:
Assay in all cases: cryo-EM structure
ribosomal protein uS21 = ribosomal protein uS21 (E. coli, UniProt P68679 1-71)
ribosomal protein uS2 = ribosomal protein uS2 (E. coli, UniProt P0A7V0 1-241)
ribosomal protein uS3 = ribosomal protein uS3 (E. coli, UniProt P0A7V3 1-233)
ribosomal protein uS5 = ribosomal protein uS5 (E. coli, UniProt P0A7W1 1-166)
ribosomal protein uS11 = ribosomal protein uS11 (E. coli, UniProt P0A7R9 1-129)

Measured: binding result

B1: E. coli SmrB inactive mutant (99DLH101-ALA) (enzyme)
chain: MKKKTTLSEEDQALFRQLMAGTRKIKQDTIVHRPQRKKISEVPVKRLIQEQADASHYFSDEFQPLLNTEGPVKYVRPDVSHFEAKKLRRGDYSPELFLALAGLTQLQAKQELGALIAACRREHVFCACVMHGHGKHILKQQTPLWLAQHPHVMAFHQAPKEYGGDAALLVLIEVEEWLPPEL
binds: all assays above
